Test results taken from article PMC3581365 (The Journal of Biological Chemistry, 2013).

T1: HP0892 fused with His tag at the C terminus (HP0892-His) (H. pylori 26695, UniProt O25552 1-90)
T1 sequence: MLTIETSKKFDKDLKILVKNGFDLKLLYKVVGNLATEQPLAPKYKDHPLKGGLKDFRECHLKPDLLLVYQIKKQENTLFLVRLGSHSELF

T2: HP0893 expressed as a C-terminal His tag fusion (HP0893-His) (H. pylori 26695, UniProt O25553 1-95)
T2 sequence (looked up): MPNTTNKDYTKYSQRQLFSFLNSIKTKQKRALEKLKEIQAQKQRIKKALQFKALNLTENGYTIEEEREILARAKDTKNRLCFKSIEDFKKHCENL

B1: HP0893Ctp, 30-residue peptide corresponding to the C-terminal region (Glu-66 to Leu-95) of HP0893 (peptide, UniProt O25553 66-95, looked up)
peptide: EREILARAKDTKNRLCFKSIEDFKKHCENL
B2: HP0892 without any purification tag or non-native residues (natural protein, H. pylori 26695, UniProt O25552 1-90, looked up)
chain: MLTIETSKKFDKDLKILVKNGFDLKLLYKVVGNLATEQPLAPKYKDHPLKGGLKDFRECHLKPDLLLVYQIKKQENTLFLVRLGSHSELF

Legend:
[1] = target: T1, HP0892 fused with His tag at the C …; experiment: NMR titration
[2] = target: T2, HP0893 expressed as a C-terminal His …; experiment: pull-down

| Binder | stoichiometry N [1] | stoichiometry N [2] |
| --- | --- | --- |
| B1 | 1 | – |
| B2 | – | 1 |
